Consider 7 molecules from patent publication US20210060116A1 (published 2021).

Where only a bound is given, the exact number is not on record here.

Experiment [1] concerns the target T1, Recombinant human p65 protein (r-p65) with DDK tag (catalog number TP320780) (human, UniProt Q04206 1-551).
T1 construct: mature; also called r-p65-DDK; human r-p65; not shown: DDK tag
As to the kind of experiment: score table: the mark stands in the column >3 of KD (uM).

Experiment [2] has as its target Recombinant human p65 protein (r-p65) with DDK tag (catalog number TP320780) (human) (UniProt Q04206). As to the kind of experiment: plate ELISA, Scatchard analysis by the method of Friguet et al. (In general: ELISA stands for enzyme-linked immunosorbent assay.)
The target is the same in experiment [3]. Description: plate ELISA, peptide 20-640 µM and r-p65, anti-DDK detection; at the lowest concentration evaluated.
For experiment [4], the target named is T1, Recombinant human p65 protein (r-p65) …. As to the kind of experiment: score table: the mark stands in the column <3 of KD (uM).

T1 sequence (Q04206 whole entry): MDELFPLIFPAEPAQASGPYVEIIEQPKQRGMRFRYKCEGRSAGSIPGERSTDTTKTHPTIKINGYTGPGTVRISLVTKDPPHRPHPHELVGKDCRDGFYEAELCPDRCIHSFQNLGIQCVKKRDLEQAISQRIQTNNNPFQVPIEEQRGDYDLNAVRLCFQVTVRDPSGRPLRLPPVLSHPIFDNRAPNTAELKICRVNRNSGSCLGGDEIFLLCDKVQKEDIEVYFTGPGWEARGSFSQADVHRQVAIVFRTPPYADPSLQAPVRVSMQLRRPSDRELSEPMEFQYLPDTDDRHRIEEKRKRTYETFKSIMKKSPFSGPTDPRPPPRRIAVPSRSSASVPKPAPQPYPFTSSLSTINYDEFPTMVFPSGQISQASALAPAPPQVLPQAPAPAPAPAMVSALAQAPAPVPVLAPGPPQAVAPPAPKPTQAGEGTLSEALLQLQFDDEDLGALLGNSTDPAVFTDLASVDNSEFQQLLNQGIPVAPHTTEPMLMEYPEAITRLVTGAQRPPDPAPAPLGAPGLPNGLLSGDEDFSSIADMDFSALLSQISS
Sequence of Recombinant human p65 protein (r-p65) with DDK tag (catalog number TP320780) (human) (Q04206 whole entry): as above

Take Ac-EPAPEQPDG-NH2 (also called Analog 8) [PGA-5]: the Kd in experiment [1] was greater than 3000 nM.
For Ac-EPAPESPQV-NH2 (also called Analog 7) [PGA-4], the Kd in experiment [1] was greater than 3000 nM.
On to Ac-APKPYQPRG-NH2 (also called Analog 20; GA-1) [PGA-1], for which the Kd in experiment [1] was greater than 3000 nM.
Regarding Ac-EPAPLAPYG-NH2 [GA-2 (GILZ analog 2, as labelled in Examples 3 to 6)], the Kd in experiment [2] came to 3240 nM. Also, the percent bound r-p65 in experiment [3] was greater than 25%.
Regarding Ac-EPAPLAPYG-NH2 (also called Analog 3; GA-2) [PGA-2], the Kd in experiment [4] is less than 3000 nM.
Ac-EPAPYQPEG-NH2 (also called Analog 14) [PGA-3]: in experiment [1], the Kd is greater than 3000 nM.
For the molecule Ac-APKPYQPRG-NH2 [GA-1 (GILZ analog 1, as labelled in Examples 3 to 6)], the Kd in experiment [2] was 2290 nM. Also, the percent bound r-p65 in experiment [3] was greater than 25%.

As a reminder, the Kd is the constant that tells how readily two partners part at equilibrium.
